Test results from patent publication US20120276124A1 (Sanofi, published 2012).

B1: hu2H11R35R74-PEG4-NHAc-DM4 (antibody, human IgG1, kappa, V domains shown)
VH: QVQLVQSGAEVVKPGASVKISCKASGYTFTAYYMHWVKQSPVQSLEWIGLVNPYNGFSSYNQKFQGKASLTVDRSSSTAYMELHSLTSEDSAVYYCAREFYGYRYFDVWGQGTAVTVSS
VL: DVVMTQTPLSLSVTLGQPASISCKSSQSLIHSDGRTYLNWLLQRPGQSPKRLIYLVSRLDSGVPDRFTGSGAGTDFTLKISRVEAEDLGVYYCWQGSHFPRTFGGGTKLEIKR
modifications: may carry L-DM4 through the AcNH-PEG4 linker; sites not stated; maytansinoid L-DM4 attached through the AcNH-PEG4 linker (NHS activated ester; sites not stated); average DAR (UV) 5.9 for the whole antibody
B2: hu2H11R35R74-PEG4-Allyl-DM4 (antibody, human IgG1, kappa, V domains shown)
VH: B1 VH
VL: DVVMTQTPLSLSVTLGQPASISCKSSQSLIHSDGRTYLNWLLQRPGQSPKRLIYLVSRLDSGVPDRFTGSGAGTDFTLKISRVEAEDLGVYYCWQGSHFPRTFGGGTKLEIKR
modifications: may carry L-DM4 through the Allyl-PEG4 linker; sites not stated; maytansinoid L-DM4 attached through the Allyl-PEG4 linker (NHS activated ester; sites not stated); average DAR (UV) 5.3 for the whole antibody
B3: hu2H11R35R74-PEG8-NHAc-DM4 (antibody, human IgG1, kappa, V domains shown)
VH: B1 VH
VL: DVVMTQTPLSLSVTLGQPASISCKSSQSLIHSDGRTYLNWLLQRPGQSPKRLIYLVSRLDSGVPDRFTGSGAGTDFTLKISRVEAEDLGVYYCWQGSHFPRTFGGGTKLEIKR
modifications: may carry L-DM4 through the AcNH-PEG8 linker; sites not stated; maytansinoid L-DM4 attached through the AcNH-PEG8 linker (NHS activated ester; sites not stated); average DAR (UV) 4.9 for the whole antibody
B4: hu2H11R35R74-PEG4-NMeAc-DM4 (antibody, human IgG1, kappa, V domains shown)
VH: B1 VH
VL: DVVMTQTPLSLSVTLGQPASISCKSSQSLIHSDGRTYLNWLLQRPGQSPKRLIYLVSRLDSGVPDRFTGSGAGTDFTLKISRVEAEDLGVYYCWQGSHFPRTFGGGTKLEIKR
modifications: may carry L-DM4 through the AcNMe-PEG4 linker; sites not stated; maytansinoid L-DM4 attached through the AcNMe-PEG4 linker (NHS activated ester; sites not stated); average DAR (UV) 5.4 for the whole antibody

Each binder was assayed against EphA2 receptor (UniProt P29317 24-976, limits assumed) (assay: cell-based or functional assay).
Chain of EphA2 receptor (P29317 24-976 limits assumed): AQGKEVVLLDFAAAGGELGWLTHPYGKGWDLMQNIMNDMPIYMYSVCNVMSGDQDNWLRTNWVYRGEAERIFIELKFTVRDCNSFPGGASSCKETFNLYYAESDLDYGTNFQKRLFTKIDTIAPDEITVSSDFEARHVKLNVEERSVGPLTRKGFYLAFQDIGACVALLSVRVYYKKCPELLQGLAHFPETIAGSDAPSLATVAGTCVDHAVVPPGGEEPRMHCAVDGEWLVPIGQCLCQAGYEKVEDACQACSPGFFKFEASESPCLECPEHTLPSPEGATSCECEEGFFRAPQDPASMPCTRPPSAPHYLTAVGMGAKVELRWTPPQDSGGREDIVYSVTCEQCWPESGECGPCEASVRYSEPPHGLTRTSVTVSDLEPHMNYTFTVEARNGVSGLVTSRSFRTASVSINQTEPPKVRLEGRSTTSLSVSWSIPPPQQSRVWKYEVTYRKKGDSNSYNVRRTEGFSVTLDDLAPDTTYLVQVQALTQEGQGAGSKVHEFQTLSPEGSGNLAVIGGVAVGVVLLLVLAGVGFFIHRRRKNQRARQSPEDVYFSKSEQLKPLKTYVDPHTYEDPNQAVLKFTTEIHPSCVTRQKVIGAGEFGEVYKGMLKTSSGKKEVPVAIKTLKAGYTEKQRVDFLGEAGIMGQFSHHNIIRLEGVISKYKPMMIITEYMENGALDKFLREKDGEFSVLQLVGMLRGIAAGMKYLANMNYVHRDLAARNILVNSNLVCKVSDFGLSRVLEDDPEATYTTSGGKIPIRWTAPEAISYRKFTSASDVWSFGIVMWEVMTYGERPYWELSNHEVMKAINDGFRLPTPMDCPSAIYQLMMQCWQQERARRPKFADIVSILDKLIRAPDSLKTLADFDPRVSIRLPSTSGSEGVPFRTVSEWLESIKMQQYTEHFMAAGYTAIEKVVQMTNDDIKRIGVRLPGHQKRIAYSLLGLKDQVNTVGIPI

| Binder | IC50 [pM], +naked hu2H11R35R74 (1 uM); inhibition of growth of MDA-MB231 cells (14C-thymidine uptake) [pM] | IC50 [pM], conjugate alone; inhibition of growth of MDA-MB231 cells (14C-thymidine uptake) [pM] | ratio (IC50 +naked hu2H11R35R74 / conjugate alone) |
| --- | --- | --- | --- |
| B1 | 29700 | 147 | 202 |
| B2 | 7820 | 161 | 49 |
| B3 | 25000 | 400 | 62 |
| B4 | 36400 | 217 | 168 |
